Data on five molecules can be found in paper PMC11139964, “L-serine deficiency: on the properties of the Asn133Ser variant of human phosphoserine phosphatase” (Scientific Reports, 2024).

Series [1] deals with T1, human phosphoserine phosphatase (PSP) (Homo sapiens, UniProt P78330, N133S).
T1 construct: gene PSPH; EC 3.1.3.3
T1 sequence (P78330 1-225 N133S): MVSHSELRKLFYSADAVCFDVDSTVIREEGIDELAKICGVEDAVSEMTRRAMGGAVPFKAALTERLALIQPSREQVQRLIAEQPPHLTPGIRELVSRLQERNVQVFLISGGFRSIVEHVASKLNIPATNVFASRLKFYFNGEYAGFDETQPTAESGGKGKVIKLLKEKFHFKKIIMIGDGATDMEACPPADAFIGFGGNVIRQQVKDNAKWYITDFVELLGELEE
The series is described as follows: PNP-coupled phosphate release assay (MESG, […] nm). In kind it is biochemical. To be noted: read-out: Asn133Ser.

The target in series [2] is T2, human phosphoserine phosphatase (PSP) (Homo sapiens, UniProt P78330).
T2 construct: gene PSPH; EC 3.1.3.3
T2 sequence (P78330 1-225): T1 sequence (P78330 1-225 N133S) with S133N
In words: PNP-coupled phosphate release assay (MESG, […] nm). It is filed as biochemical. The conditions noted are these: read-out: wild-type.

Substrate in series [3]: N[C@@H](COP(=O)(O)O)C(=O)O
In words: purified protein. To be noted: 50 mM HEPES, 100 mM KCl, 3 mM MgCl2, pH 7.0, 37 °C, 170 μM acetyl-CoA in coupling system. It is filed as biochemical, Homo sapiens.

Series [4] deals with the molecule itself. In words: SEC; Superdex 75 Increase 5/150 GL, 50 mM HEPES pH 7.0, 100 mM KCl, room temperature, protein loaded at 10 uM; apparent mass from a calibration curve; monomer-dimer.

Positions count from the first letter of the chain named. Numbers in names are those of the source.

As for `N[C@@H](CO)C(=O)O` [L-serine], the IC50 in series [1] is 250 ± 25 µM; in series [2] it was 290 ± 20 µM.

B1: human phosphoserine phosphatase (PSP) (Homo sapiens) (protein)
chain: T1 sequence (P78330 1-225 N133S) with S133N
notes: EC 3.1.3.3
For the molecule B1, in series [3], the Km was determined as 42 ± 13 µM, the kcat is 38 ± 3 s⁻¹ and the kcat/Km stood at 900000 M⁻¹ s⁻¹.

B2: human phosphoserine phosphatase (PSP) (Homo sapiens; N133S) (protein)
chain: T1 sequence (P78330 1-225 N133S)
notes: EC 3.1.3.3
With B2, in series [3], the Km stood at 31 ± 5 µM, the kcat amounted to 28 ± 1 s⁻¹ and the kcat/Km was 900000 M⁻¹ s⁻¹.

B3: human phosphoserine phosphatase (PSP), wild-type (enzyme)
chain: SHSELRKLFYSADAVCFDVDSTVIREEGIDELAKICGVEDAVSEMTRRAMGGAVPFKAALTERLALIQPSREQVQRLIAEQPPHLTPGIRELVSRLQERNVQVFLISGGFRSIVEHVASKLNIPATNVFANRLKFYFNGEYAGFDETQPTAESGGKGKVIKLLKEKFHFKKIIMIGDGATDMEACPPADAFIGFGGNVIRQQVKDNAKWYITDFVELLGELEE
notes: phosphoserine phosphatase (PSP), human, EC 3.1.3.3; gene cloned in the NdeI/BamHI sites of pET28a; also called wt PSP; wild-type PSP; source: E. coli BL21(DE3), purified (published procedure)
With B3, the “stoichiometry N” value in series [4] was determined as 2.

B4: Asn133Ser variant of human phosphoserine phosphatase (PSP) (enzyme)
chain: B3 chain with N131S
notes: phosphoserine phosphatase (PSP), human, EC 3.1.3.3, with the patients' missense variant c.398A > G p.(Asn133Ser); mutated pET28a plasmid prepared by GenScript; Natural variant found in patients and in gnomAD; Same construct as m1 apart from the substitution; also called Asn133Ser PSP; N133S PSP; source: E. coli BL21(DE3), purified (> 90% purity, published procedure)
For B4, the “stoichiometry N” value in series [4] was 2.

As a reminder, the Km is the concentration of substrate that gives half-maximal velocity. As a reminder, the kcat is the number of substrate molecules converted per active site and unit of time at saturation. What is called kcat/Km is the second-order rate constant that governs catalysis at low substrate concentration. The stoichiometry N is a count of units in the complex or per binding partner.
